Results reported in patent US7241873B2, “Recombinant anti-osteopontin antibody and use thereof” (Juridical Foundation the Chemo-sero-therapeutic Research …, priority 2001, dated 2007).

Experiments:
[1] = tested on: adhesion of murine NIH 3T3 cell to mOPN/de-GST; assay: Inhibition of NIH 3T3 cell adhesion to murine OPN; assay type: cell-based, mouse; conditions: peptide 100 μg/mL, FIG. 15
Text: It was examined by the method described in the reference (S. Kon et al., (2002): J. Cell. Biochem., 84(2), 420–432) as to whether or not the M5 antibody might inhibit cell adhesion to OPN. As the OPN, the full-length murine OPN was used, from which the GST segment had preliminarily been removed with PreScission protease (Amersham Pharmacia Biotech, Tokyo, Japan) (referred to as “mOPN/de-GST” hereinafter) was used. As the cell, murine NIH 3T3 cell was used.

[2] = tested on: adhesion of α9-transformed SW480 cell to nOPN; assay: Adhesion of α9-transformed SW480 cell to nOPN; assay type: cell-based, human; conditions: 3 μg/ml nOPN, combination of 200 μM GRGDSP peptide and anti-α9β1 antibody Y9A2, FIG. 2A
Experimental: (§1) It was examined by the following method as to whether or not the murine monoclonal antibodies inhibited cell adhesion to OPN. First, a 96-well plate was precoated with various concentrations of the CHO/OPN-a at 4° C. overnight, which was then treated with 0.5% BSA in PBS under conditions of 37° C. for 10 minutes, so as to block non-specific adhesion. A human fibroblast TIG-7 or SW480 cell transformed with the cDNA of an integrin subunit α9 (referred to as “α9-transformed SW480 cell” hereinafter) was suspended in D-MEM containing 0.25% BSA; 200 μl of the resulting cell suspension (at a cell concentration of 5×10^4 cells/well) was injected in a 96-well plate precoated with the CHO/OPN-a or nOPN, in the presence or absence of various concentrations of the monoclonal antibodies or synthetic peptides, for incubation at 37° C. for one hour.
(§2) The culture medium was discarded from the plate, and all the wells were rinsed twice with D-MEM containing 0.25% BSA. The adherent cells were fixed and stained with 0.5% crystal violet in 20% methanol for 30 minutes.
All the wells were rinsed three times with water, and the adherent cells were then solubilized into 20% acetic acid. The resulting supernatant recovered from each well was analyzed with an immunoreader, to measure the absorbance at 590 nm to determine the relative count of the cells adhering to the well. […]

[3] = tested on: adhesion of α9-transformed SW480 cell to vitronectin; assay: Adhesion of α9-transformed SW480 cell to vitronectin; assay type: cell-based, human; conditions: 1 μg/ml vitronectin, 200 μM peptide, FIG. 2A
[4] = tested on: adhesion of human fibroblast TIG-7 to CHO/OPN-a; assay: Inhibition of TIG-7 cell adhesion to OPN; assay type: cell-based; conditions: peptide 100 μg/ml, FIG. 1A
Experimental: as §1, §2
All the wells were rinsed three times with water, and the adherent cells were then solubilized into 20% acetic acid. The resulting supernatant recovered from each well was analyzed with an immunoreader, to measure the absorbance at 590 nm to determine the relative count of the cells adhering to the well. All the assays were done in a triplicate fashion, and at least three independent experiments were performed. The values shown represent mean at three independent experiments.

[5] = tested on: mouse collagen arthritis model; assay: Mouse collagen arthritis model (arthritogenic antibody cocktail/LPS); assay type: in vivo; conditions: text summary of Tables 6 to 9
Experimental: For arthritis induction, an arthritogenic antibody cocktail (under the trade name of a cocktail for arthritis, Arthrogen-CIA® mAb, Arthritogenic mAb cocktail; manufactured by Iwai Chemical Pharmaceutical Co., Ltd.) recognizing four epitopes specific to collagen was used. To a mouse was intravenously administered the arthritogenic cocktail; 3 days later, LPS (100 μg) was intraperitoneally administered to thereby elicit arthritis. Arthritis was observed on day 3 after LPS dosing, which reached maximum on day 6.
Immediately before LPS dosing and 3 days later, the M5 antibody was intravenously administered at a dose of 40 μg, 150 μg or 400 μg. As the control group, a rabbit IgG-dosed group (at a dose of 400 μg) was arranged. Additionally, the anti-mouse TNF-α antibody was intravenously administered at a dose of 200 μg/mouse immediately before LPS administration and 3 days later. As the control group, a rat IgG-dosed group (at a dose of 200 μg) was arranged. Further, MTX was orally given (at a dose of 3.2 mg/kg) once daily on the very day of LPS dosing and thereafter. Then, MTX dissolved in 5 ml of 0.5% methyl cellulose solution was used. For the control group, 5 ml of 0.5% methyl cellulose solution was arranged.
Concerning four items, namely arthritis score, leg edema, body weight change and feed intake, assessment was done per each group of five animals.

[6] = target: partial peptide GRGDSVVYGLR of the human osteopontin (Homo sapiens, UniProt P10451); assay: KD assay on BIACORE-2000; assay type: binding; conditions: compared with murine 2K1 antibody
Experimental: The KD value of the chimera 2K1 antibody was assayed in the following manner. First, a partial peptide GRGDSVVYGLR (residues 7–17 of SEQ ID NO: 1) of the human osteopontin was biotinylated with a biotinylation kit (Dojindo Corporate). A sensor chip SA was set on BIACORE-2000, to bind 23 RU of a ligand (Bin-GRGDSVVYGLR)(residues 7–17 of SEQ ID NO: 1). […] The data of these sensor grams were analyzed by global fitting at 1:1 (Langmuir) binding by a BIACORE analysis software BIA Evaluation Version 3.0. FIG. 6a is a sensor gram at various concentrations of the murine 2K1 antibody. FIG. 6b is a sensor gram at various concentrations of the chimera 2K1 antibody.

[7] = tested on: human peripheral monocyte migration toward thrombin-cleaved OPN; assay: Migration of TNF-α-activated human peripheral monocyte toward thrombin-cleaved OPN (chimera 2K1); assay type: cell-based; conditions: for Mean migrating cell counts per 1 mm^3 (monocyte): thrombin-cleaved OPN 10 μg/mL
Experimental: First, the blood drawn out from a normal subject with heparin was diluted 2-fold with an RPMI 1640 culture medium. The diluted blood was overlaid on the Ficoll-Paque (Pharmacia), which was then centrifuged at 400×g at ambient temperature for 30 minutes. A white layer observed in the interface between the blood plasma and Ficoll-Paque was recovered and used as a monocyte. The monocyte thus obtained was overnight cultured with human TNF-α (20 ng/mL). The resulting activated monocyte was used for a migration experiment.
The migration experiment was done, using a 48-well microchemotaxis chamber (Neuro Probe Inc.). Human OPN reacted with bovine thrombin (Sigma) at 37° C. for 2 hours, for cleavage. After various concentrations of the 2K1 chimera antibody were added to the resulting human […] and left to stand at 37° C. for 15 minutes, the resulting mixture was added to the lower chamber (the final human OPN concentration was 10 μg/mL). Placing a polycarbonate filter (pore size of 5 μm) thereon, 50 μl of a cell suspension (2×10^6 cells/mL) was added to the upper chamber.
After culturing in the presence of 5% CO2 at 37° C. for 2 hours, the polycarbonate filter was removed, while […] with Diff-Quick (Baxter). The cells on the surface of the […] filter were counted at a magnification×40. The results are shown as mean cell count (cells/mm^3)±SD in 6 wells.

[8] = target: BSA-crosslinked osteopontin peptide (BSA-CVDTYDGRGDSVVYGLRS) (Homo sapiens, UniProt P10451); assay: ELISA binding to osteopontin peptide
Text: Based on the concentrations of the humanized 2K1 antibody and the chimera 2K1 antibody as determined in Example 13, the binding activities of the humanized 2K1 antibody and the chimera 2K1 antibody with osteopontin peptide (CVDTYDGRGDSVVYGLRS) (SEQ ID NO: 1) were compared with reference to the ELISA of Kon et al. (Journal of Cellular […]: 420–432 (2002)).
Dilution series of the humanized 2K1 antibody and the chimera 2K1 antibody reacted on a microtiter plate with BSA-crosslinked osteopontin peptide (BSA-CVDTYDGRGDSVVYGLRS)(SEQ ID NO: 1) immobilized thereon. Then, the antibodies bound to BSA-CVDTYDGRGDSVVYGLRS (SEQ ID NO: 1) reacted with protein A-HRP, and finally with TMB (Dojindo Corporate), to measure the absorbance at a wavelength of 450 nm.
Additionally, reaction on a plate with only BSA immobilized thereon as a negative control was also measured in the same manner.
As a negative control, additionally, the binding activity of the chimera 2K1 antibody to BSA (open circle) and the binding activity of the humanized 2K1 antibody to BSA (open square) are also shown.

For GRGDSP [reference compound], the “inhibition of NIH 3T3 adhesion to mOPN/de-GST” value [1] was “apparently inhibited”, the “inhibition of adhesion of α9-transformed SW480 cell to nOPN” value [2] was “inhibited” and the “inhibition of adhesion between vitronectin and α9-transformed SW480 cell” value [3] was “inhibited”. For the same molecule, the “inhibition of TIG-7 adhesion to OPN” value [4] was “apparently inhibited”.

For `CN(Cc1cnc2nc(N)nc(N)c2n1)c1ccc(C(=O)N[C@@H](CCC(=O)O)C(=O)O)cc1` [MTX], the “effect on arthritis score, onset of arthritis and leg edema (therapeutic effect)” value [5] was “almost no pharmaceutical efficacy”.

B1: chimera 2K1 antibody: VH and VL of murine 2K1 antibody (SEQ ID NO: 19, 20) conjugated to human Igγ1 and human Igκ (antibody, V domains shown)
VH: QVQLQQSGAELVRPGASVKLSCKALGYTFTDYEMHWVKQTPVHGLEWIGAIHPGRGGTAYNQKFKGKATLTADKSSSTAYMELSSLTSEDSAVYYCTRITGYFDVWGAGTTVTVSS
VL: DVLMTQTPLSLPVSLGDQASISCRSSQSIVHSNGNTYLEWYLQKPGQSPKLLIYKVSNRFSGVPDRFSGSGSGTDFTLKISRVEAEDLGVYYCFQGSHVPLTFGAGTKLELKR
modifications: human IgG1 and kappa constant regions; Mouse
With B1 the “reduction of the affinity due to the chimera preparation” value [6] was “No reduction”, the “inhibition of migration of TNF-α-activated human peripheral neutrophil and monocyte toward thrombin-cleavage-type OPN” value ([7]; summary of Table 3) was “inhibited” and the “Mean migrating cell counts per 1 mm^3 (monocyte)” value ([7]; antibody 12.5 μ/mL) was 1010.0 ± 59.1 counts per 1 mm^3. For the same molecule, the “Mean migrating cell counts per 1 mm^3 (monocyte)” value ([7]; antibody 25 μ/mL) was 1153.3 ± 96.2 counts per 1 mm^3, the “Mean migrating cell counts per 1 mm^3 (monocyte)” value ([7]; antibody 50 μ/mL) was 895.0 ± 78.0 counts per 1 mm^3 and the “Mean migrating cell counts per 1 mm^3 (monocyte)” value ([7]; antibody 100 μ/mL) was 821.7 ± 50.2 counts per 1 mm^3. For the same molecule, the “Mean migrating cell counts per 1 mm^3 (monocyte)” value ([7]; antibody 250 μ/mL) was 865.0 ± 64.9 counts per 1 mm^3, the “Mean migrating cell counts per 1 mm^3 (monocyte)” value ([7]; antibody 500 μ/mL) was 830.0 ± 44.1 counts per 1 mm^3 and the “binding activity to BSA-CVDTYDGRGDSVVYGLRS” value ([8]; ELISA, absorbance 450 nm, FIG. 13) was “had binding activities”. The “binding activity to BSA (negative control plate)” value ([8]; ELISA, plate with only BSA immobilized) was “not to BSA” and the “comparison of binding activities of both antibodies to BSA-CVDTYDGRGDSVVYGLRS” value ([8]; humanized versus chimera 2K1 antibody) was “at the same level”.
